Assay results from patent publication US20140363441A1 (priority 2013, published 2014).

Columns and labels:
[1] = target: 23 amino acid synthetic M2e peptide of A/Fort Worth/1/50 (influenza A virus H1N1 A/Fort Worth/1/50); experiment: ELISA on 23mer M2e peptide coated at 1 µg/ml
[2] = target: SEQ ID NO 307; experiment: peptide ELISA, mAb 5 µg/mL
[3] = target: SEQ ID NO 308; experiment: peptide ELISA, mAb 5 µg/mL
[4] = target: SEQ ID NO 273; experiment: peptide ELISA, mAb 5 µg/mL

Molecule | EC50 [1] | ELISA A450 [2] | ELISA A450 [3] | ELISA A450 [4]
chimeric mouse V-region/human IgG1 kappa 14C2 antibody | 0.01 µg/mL |  |  | 
23K12 (TCN-031) (antibody, V domains shown) VH: EVQLVESGGGLVQPGGSLRISCAASGFTVSSNYMSWVRQAPGKGLEWVSVIYSGGSTYYADSVKGRFSFSRDNSKNTVFLQMNSLRAEDTAVYYCARCLSRMRGYGLDVWGQGTTVTVS VL: DIQMTQSPSSLSASVGDRVTITCRTSQSISSYLNWYQQKPGKAPKLLIYAASSLQSGVPSRFSGSGSGTDFTLTISGLQPEDFATYYCQQSYSMPAFGQGTKLEIK |  | 0.58 | 0.62 | 0.22
